Article PMC2724282 (Nucleic Acids Research, 2009)

Target: the molecule itself
Experiment: cross-linking

B1: Hin–H107Y/S94C (enzyme)
chain: MATIGYIRVSTIDQNIDLQRNALTSANCDRIFEDRISGKIANRPGLKRALKYVNKGDTLVVWKLDRLGRSVKNLVALISELHERGAHFHSLTDCIDTSSAMGRFFFYVMSALAEMERELIVERTLAGLAAARAQGRLGGRPRAINKHEQEQISRLLEKGHPRQQLAIIFGIGVSTLYRYFPASRIKKRMN
B1: binds.
